This experiment deals with HIV-1 Env gp140 of isolate JRFL (HIV-1 isolate JRFL (clade B)) (UniProt Q75760). In words: ELISA.

Usually EC50 stands for the concentration needed to bring the measured effect to its halfway point. Read a high EC50 as a less potent agent. “human soluble CD4 (first two domains of the human CD4) (from UniProt P01730 26-203) (domain or fragment)” came in with an EC50 of 6 nM.

The record behind these values is publication PMC2954370.
